From patent US20150359847A1, “METHOD AND COMPOSITION FOR CONFERRING NEUROPROTECTION” (BLOOD SYSTEMS RESEARCH INSTITUTE, priority 2014, published 2015)

Tests used:
[1] = system: β3-tubulin / dendritic branches in the molecular layer of the dentate gyrus; assay: β3-tubulin western blot and staining of ipsilateral hippocampus 7 days post-TBI; type: in vivo, mouse; conditions: TIMP3 60 μg/kg IV x3; day 7 post-TBI
Text: (§1) The mouse controlled cortical impact (CCI) injury model was used as previously described. In brief, mice were anesthetized with 5% isoflurane and 1:1 O2:N2 mixture. Animals were mounted on a stereotaxic frame and were secured by ear bars and an incisor bar. Anesthesia was maintained with 2.0% isoflurane and 1:1 O2:N2 mixture. A 5-mm-diameter craniotomy was made midway between bregma and lambda on the right side, with the medial edge of the craniotomy 1 mm lateral to midline. Injury was produced using a magnetic impactor mounted at an angle of 110° from the vertical plane. A single impact at a velocity of 4+/−0.2 m/s was used inflict a moderate to severe injury (1.2-1.3 mm impact depth). After injury, the incision was closed. Sham animals underwent identical surgeries except for impact injury. Core body temperature was monitored using a rectal thermometer and maintained at 36.8° C.-37.2° C. with a heating pad throughout the procedure. For treatments, TIMP3 (60.0 μg/kg) or vehicle control (PBS) administration was performed at 2, 24, and 48 hrs after injury via tail vein injections in a total volume of 125 μl. Animal research was performed with approval of the Institutional Animal Care and Use Committee at ISIS Services LLC (San Carlos, Calif., USA). […]

[2] = system: mouse model of controlled cortical impact (CCI); assay: Context-dependent fear discrimination in CCI TBI mice (Example 1); type: in vivo; conditions: TIMP3 60 μg/kg IV x3; task day 2 (day 16)
Text: as §1, with “μl.” for “μl. Animal research was performed with approval of the Institutional Animal Care and Use Committee at ISIS Services LLC (San Carlos, Calif., USA).”
Contextual discrimination was assessed in a manner similar to prior studies conducted by the inventors and others. […] Comparing the time spent freezing in each chamber during training assessed discrimination of the two contexts.

hippocampal neurons = assay: Neurite chamber assay (AXIS axon isolation device); type: cell-based, mouse; conditions: 7 days treatment with TIMP3
Description: For AXIS™ Axon Isolation devices, chambers were first sterilized from one side of the groves to the other under flow gradient with 70% ethanol to avoid trapping air in the groves. Afterwards the slides were completely immersed in 70% ethanol for 5 mins. Upon removing the slide from the ethanol bath, chambers were washed twice with PBS under a flow gradient to flush the chambers, the procedure was then repeated with Poly-D-Lysine. Chambers were then incubated with Poly-D-Lysine overnight at 4° C. Prior to plating cells, chambers were flushed with ‘plating media’ (see tissue culture section). Simultaneous plating of the single cell suspension in both wells on side of the groves enabled equilibrium to be obtained and a sufficient number of cell remained in the chamber adjacent to the groves. Hippocampi from 2 pups were used per chamber. Cells were allowed to attach for 4 hrs before excess cells in the wells were detached using the rubber tip from a sterile 1 ml syringe, plating media removed and ‘maintenance media’ with treatments were added. Flow gradients were maintained throughout the culture steps and media exchanges were performed with this in mind.

SH-SY5Y cells = assay: Hypoxia and MTT assay; type: cell-based, human; conditions: 5 hrs hypoxia + 18 hrs recovery; 1 hr pre-treatment with 1 ng/ml TIMP3
Description: MTT Cell Viability & Proliferation Assay™ was purchased from ScienCell, (Cat#8028. Carlsbad, Calif.) and performed with modifications. In brief, 2×10^5 SH-SY5Y cells were plated per well of a 12 well plate and differentiated for 2 days. Pre-treatments were conducted 1 hr prior to initiation of hypoxia. Control cells underwent media exchange. For hypoxia, cultures were placed in a hypoxia incubator chamber (Cat#27310. StemCell technologies, Vancouver, BC) and purged of regular air using nitrogen gas for 5 mins at a flow rate of 20 L/min, after which both inlet and outlet values were closed and the chamber was placed inside a regular tissue culture incubator. The chamber was re-gassed after one hour again for 5 mins at a flow rate of 20 L/min. After the hypoxia period, tissue culture plates were removed from the chamber and placed back into a regular tissue culture incubator for 18 hrs. At the time of assay 50 μl of MTT Solution was added to each well and incubated for 1 hr at 37° C. After incubation, add 250 μl of MTT solubilization buffer was added and […] of each test sample was transferred to a well of a 96 well plate. The absorbance was then read using a Polarstar plate reader (BMG Labtech, Cary, N.C.) at a wavelength at 570 nm. Background subtraction was carried out with values from an average of 4 wells of solubilization buffer alone.

MMP-2 = biological target: T1, MMP-2 (Homo sapiens, UniProt P08253); assay: SensoLyte Fluorimetric MMP-2 Activity Assay; type: biochemical; conditions: dose response; 1 μg/ml TIMP3
T1 sequence (P08253 110-660): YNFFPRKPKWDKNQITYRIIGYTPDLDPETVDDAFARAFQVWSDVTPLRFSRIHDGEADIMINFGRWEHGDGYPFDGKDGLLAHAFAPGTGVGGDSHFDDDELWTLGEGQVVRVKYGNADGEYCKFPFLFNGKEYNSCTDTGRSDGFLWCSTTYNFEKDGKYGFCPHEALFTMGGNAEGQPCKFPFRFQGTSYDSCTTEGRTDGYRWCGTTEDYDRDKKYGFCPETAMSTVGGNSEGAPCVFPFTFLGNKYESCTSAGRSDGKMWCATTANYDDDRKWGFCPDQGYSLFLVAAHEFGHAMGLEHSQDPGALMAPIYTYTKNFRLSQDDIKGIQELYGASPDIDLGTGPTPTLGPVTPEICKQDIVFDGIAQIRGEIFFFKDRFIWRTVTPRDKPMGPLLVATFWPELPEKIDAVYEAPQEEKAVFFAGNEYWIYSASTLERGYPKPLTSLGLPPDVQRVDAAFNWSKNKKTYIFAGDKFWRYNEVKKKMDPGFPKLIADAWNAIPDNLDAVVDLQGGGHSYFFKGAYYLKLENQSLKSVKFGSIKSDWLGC
Text: SensoLyte Fluorimetric MMP-2 Activity Assay Kit™ (Cat#71151) and SensoLyte Fluorimetric MMP-9 Activity Assay Kit™ (Cat#71155) were purchased from AnaSpec (Fremont, Calif.) and performed per manufacturer's instructions.

B1: TIMP3: Recombinant tissue inhibitor of matrix metalloproteinase-3, a soluble protein released by MSCs, obtained from Amgen Inc. (protein)
chain: CTCSPSHPQDAFCNSDIVIRAKVVGKKLVKEGPFGTLVYTIKQMKMYRGFTKMPHVQYIHTEASESLCGLKLEVNKYQYLLTGRVYDGKMYTGLCNFVERWDQLTLSQRKGLNYRYHLGCNCKIKSCYYLPCFVTSKNECLWTDMLSNFGYPGYQSKHYACIRQKGGYCSWYRGWAPPDKSIINATDP
number of β3-tubulin+ve dendritic branches >50 μm in the molecular layer [1]: attenuated by TIMP3 treatment
β3-tubulin protein in ipsilateral hippocampus, western blot [1]: attenuated by TIMP3 treatment
discrimination between shock and safe contexts [2]: discriminated between the environments following training
neurite outgrowth in neurite chamber (hippocampal neurons): increased neurite outgrowth
SH-SY5Y cell viability by MTT after hypoxia (SH-SY5Y cells): prevents loss of cell viability
MMP-2 inhibition (Sensolyte FRET assay) (MMP-2): can fully inhibit
